Measured values taken from publication PMC7772773, “HTR6 and SSTR3 ciliary targeting relies on both IC3 loops and C-terminal tails” (Life Science Alliance, 2020).

Key:
[1] = target: T1, CD8α (aa 1–206)-(SSTR3-CT)-BioID2-HA ( | mouse, UniProt P01732 22-206; P30935 326-428); experiment: proximity labelling; BioID2 proximity biotinylation in HEK293T cells cotransfected with EGFP-TEV-Stag-TULP3 (or S-tagged TULP3-NTD or -CTD) and CD8α(1–206)-(IC3 or CT of a GPCR)-BioID2-HA; 50 μM biotin for the last 16 h; TULP3 purified from lysate by tandem purification (GFP-Trap, TEV digestion, S-protein agarose); its biotinylation detected with NeutrAvidin-HRP, relative to total TULP3 and normalised to the β2AR …; conditions: partners not purified
T1 construct: signal peptide in the construct; CD8α, extracellular and transmembrane regions, aa 1–206; somatostatin receptor 3 (SSTR3), mouse, C-terminal tail (SSTR3-CT, aa 326–428); source: HEK293T, cotransfected, in cells; not shown: BioID2, C-terminal, kept; HA, C-terminal, kept
T1 sequence (P01732 22-206, tags or fused parts left off): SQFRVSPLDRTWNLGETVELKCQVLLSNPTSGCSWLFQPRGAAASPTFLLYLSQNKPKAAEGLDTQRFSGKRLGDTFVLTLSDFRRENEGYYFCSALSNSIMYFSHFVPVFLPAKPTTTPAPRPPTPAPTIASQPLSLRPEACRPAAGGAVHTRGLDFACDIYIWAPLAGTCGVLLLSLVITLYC

[2] = target: T2, CD8α (aa 1–206)-(HTR6-CT)-BioID2-HA ( | mouse, UniProt P01732 22-206; Q9R1C8 326-440); experiment: as above; conditions: partners not purified
T2 construct: signal peptide in the construct; CD8α, extracellular and transmembrane regions, aa 1–206; serotonin receptor 6 (HTR6), mouse, C-terminal tail (HTR6-CT, aa 326–440); also called HTR6-CT(WT); wild-type HTR6-CT; source: HEK293T, cotransfected, in cells; not shown: BioID2, C-terminal, kept; HA, C-terminal, kept
T2 sequence (P01732 22-206, tags or fused parts left off): as above

B1: EGFP-TEV-Stag-TULP3 (natural protein, UniProt O75386 1-442, looked up)
chain: MEASRCRLSPSGDSVFHEEMMKMRQAKLDYQRLLLEKRQRKKRLEPFMVQPNPEARLRRAKPRASDEQTPLVNCHTPHSNVILHGIDGPAAVLKPDEVHAPSVSSSVVEEDAENTVDTASKPGLQERLQKHDISESVNFDEETDGISQSACLERPNSASSQNSTDTGTSGSATAAQPADNLLGDIDDLEDFVYSPAPQGVTVRCRIIRDKRGMDRGLFPTYYMYLEKEENQKIFLLAARKRKKSKTANYLISIDPVDLSREGESYVGKLRSNLMGTKFTVYDRGICPMKGRGLVGAAHTRQELAAISYETNVLGFKGPRKMSVIIPGMTLNHKQIPYQPQNNHDSLLSRWQNRTMENLVELHNKAPVWNSDTQSYVLNFRGRVTQASVKNFQIVHKNDPDYIVMQFGRVADDVFTLDYNYPLCAVQAFGIGLSSFDSKLACE
notes: TULP3, ciliary trafficking adapter; the printed limit of its C-terminal domain (aa 184–442) points to a protein of 442 aa; A TEV site lies between EGFP and the S-tag; EGFP is cut off only after the first immunoprecipitation, that is after the labelling in cells; also called S-tagged TULP3; not shown: EGFP, N-terminal, kept; S-tag, N-terminal, kept
- fold biotinylated TULP3 over β2AR-CT control [1]: 20 fold
- fold biotinylated TULP3 over β2AR-CT control [2]: 4 fold
